Laboratory results from patent US20250271431A1.

What was measured:
Assay in all cases: RepliTope peptide microarray, Cy5 fluorescence
[1] = molecular target: epitope sequence SEQ ID No 15 (…) (SARS-CoV-2)
[2] = molecular target: epitope sequence SEQ ID No 35 (…) (SARS-CoV-2)
[3] = molecular target: epitope sequence SEQ ID No 18 (…) (SARS-CoV-2)
[4] = molecular target: epitope sequence SEQ ID No 19 (…) (SARS-CoV-2)
[5] = molecular target: epitope sequence SEQ ID No 37 (…) (SARS-CoV-2)
[6] = molecular target: epitope sequence SEQ ID No 17 (…) (SARS-CoV-2)

B1: hcAb B10 (clone B10), camelid full length IgG2 heavy chain only antibody (antibody)
heavy: DVQLQESGGGLVQPGGSLRLSCAASGDINTIGTMNWFRQAPGKGREFVALITSGGTTNYADSVKGRFTVSRDNAKNTVYLQMNSLKPEDTAVYHCYGADHYSDYWGQGTQVTVSSEPKTPKPQPQPQPQPNPTTESKCPKCPAPELLGGPSVFIFPPKPKDVLSISGRPEVTCVVVDVGQEDPEVSFNWYIDGAEVRTANTRPKEEQFNSTYRVVSVLPIQHQDWLTGKEFKCKVNNKALPAPIEKTISKAKGQTREPQVYALAPHREELAKDTVSVTCLVKGFYPPDINVEWQRNRQPEPEGTYATTPPQLDNDGTYFLYSKLSVGKNTWQRGETFTCVVMHETLHNHYTQKSISQS
average signal intensity (mean pixel value) [1]: 23000 | average signal intensity (mean pixel value) [2]: 10500 | average signal intensity (mean pixel value) [3]: 32800 | average signal intensity (mean pixel value) [4]: 2400 | average signal intensity (mean pixel value) [5]: 13900 | average signal intensity (mean pixel value) [6]: 45000
